No end group written: not given here.
Tests used:
[1] = test system: E13 chick DRG neurons; assay: AP fusion protein binding to dissociated E13 chick DRG neurons
Source text: FIG. 1E. Binding of AP fused Amino-Nogo fragments to dissociated E13 chick DRG neurons. Conditioned media from HEK293T cells containing AP fusion protein as indicated were applied to dissociated E13 chick DRG neurons and bound AP was stained.
If these Amino-Nogo fragments are to play a role in regulating neurite outgrowth then they would be expected to bind to neuronal processes. Previously, we have shown that AP-Nogo-66 binds to NgR on DRG processes (Fournier, A. E., et al., Nature 409:341-346 (2001)).

[2] = test system: AP-MAG; assay: Binding of AP-MAG to COS-7 cells expressing NgR mutants; set-up: key: ++: WT level; +: weaker than wild type; trace binding; −: no binding; conditions: AP-MAG 30 nM; level of binding compared to wild type NgR
[3] = test system: AP-B4C66; assay: Binding of AP-B4C66 to COS-7 cells expressing NgR mutants; set-up: key: ++: WT level; +: weaker than wild type; trace binding; −: no binding; conditions: AP-B4C66 0.5 nM; level of binding compared to wild type NgR
Outline: (§1)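 COS-7 cells expressing Ala-substituted human NgR1 mutants incubated with AP-fused ligands at near-Kd levels (AP-Ng66 5 nM, AP-B4C66 0.5 nM, AP-Lingo-1 10 nM, AP-OMGP 10 nM). Bound AP stained and measured as % of wild-type NgR; graded ++/+/tr/−.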

[4] = biological target: T1, AP-Nogo66 (Homo sapiens, UniProt Q9NQC3); assay: Binding of AP-Nogo66 to COS-7 cells expressing NgR mutants; set-up: key: ++: WT level; +: weaker than wild type; trace binding; −: no binding; conditions: AP-Ng66 5 nM; level of binding compared to wild type NgR
T1 construct: made in house; NgR mutants: COS-7
T1 sequence (Q9NQC3 1055-1120 limits assumed): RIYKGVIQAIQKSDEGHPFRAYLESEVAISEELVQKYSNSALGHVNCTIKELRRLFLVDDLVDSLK
Outline: as §1

[5] = biological target: T2, AP fusion protein with the B4C fragment of Amino-Nogo-A fused directly to Nogo-66 (human, UniProt Q9NQC3 1055-1120); assay: AP-ligand binding, COS-7
T2 construct: domain: Nogo-66; also called AP-B4C66; AP-B4C-66; not shown: alkaline phosphatase (AP), vector pcAP6
T2 sequence: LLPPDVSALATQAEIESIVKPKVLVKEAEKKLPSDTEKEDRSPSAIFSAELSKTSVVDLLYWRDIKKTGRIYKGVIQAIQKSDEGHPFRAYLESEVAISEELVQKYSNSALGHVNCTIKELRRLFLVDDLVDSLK

[6] = biological target: T3, AP-Nogo-66 (UniProt Q9NQC3 1055-1120); assay: AP-ligand binding, COS-7
T3 construct: domain: Nogo-66; construct described elsewhere (Fournier 2001); also called AP-Ng66; Ng66; not shown: alkaline phosphatase (AP); construct described elsewhere
T3 sequence (looked up): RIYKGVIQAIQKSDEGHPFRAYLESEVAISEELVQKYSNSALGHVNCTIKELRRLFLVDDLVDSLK

[7] = biological target: T4, AP-fused Amino-Nogo fragment B4C (a.a. 950-1018) (human, UniProt Q9NQC3 950-1018); assay: AP-ligand binding, COS-7
T4 construct: also called AmNg B4C; AP-B4C; not shown: alkaline phosphatase (AP), vector pcAP6
T4 sequence: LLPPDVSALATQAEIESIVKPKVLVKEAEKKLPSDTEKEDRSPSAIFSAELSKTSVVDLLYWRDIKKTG

[8] = test system: NgR ligands; assay: Binding of alanine substituted NgR mutants to NgR ligands, summary categories; conditions: AP-Nogo66, AP-B4C, AP-B4C66, AP-Lingo-1, AP-OMgp and AP-MAG; compared to wild type NgR
Outline: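 AP-fused ligands (Nogo66, B4C, B4C66, Lingo-1, OMgp, MAG) were assayed against 74 Ala-substitution mutants of human NgR1 targeting surface charged patches, glycosylation sites and predicted binding regions, plus the D259N variant. Outcomes were grouped into categories: binding lost for all ligands, retained for all, or ligand-selective.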

[9] = test system: AP-OMgp; assay: Binding of AP-OMgp to COS-7 cells expressing NgR mutants; set-up: key: ++: WT level; +: weaker than wild type; trace binding; −: no binding; conditions: AP-OMGP 10 nM; level of binding compared to wild type NgR
Outline: as §1

[10] = biological target: T5, AP-B4C (Homo sapiens, UniProt Q9NQC3); assay: Binding of AP-B4C to COS-7 cells expressing NgR mutants; set-up: key: ++: WT level; +: weaker than wild type; trace binding; −: no binding; conditions: AP-B4C 10 nM; level of binding compared to wild type NgR
T5 construct: a.a; 950-1018 (AmNg B4C); made in house; host or cells: AP ligand: HEK293T conditioned medium; NgR mutants: COS-7
T5 sequence (Q9NQC3 950-1018): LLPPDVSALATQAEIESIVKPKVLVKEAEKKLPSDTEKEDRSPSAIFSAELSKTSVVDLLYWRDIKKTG

[11] = biological target: T6, AP-Lingo-1 (Homo sapiens, UniProt Q96FE5); assay: Binding of AP-Lingo-1 to COS-7 cells expressing NgR mutants; set-up: key: ++: WT level; +: weaker than wild type; trace binding; −: no binding; conditions: AP-Lingo-1 10 nM; level of binding compared to wild type NgR
T6 construct: made in house; NgR mutants: COS-7
T6 sequence (Q96FE5 40-538 limits assumed): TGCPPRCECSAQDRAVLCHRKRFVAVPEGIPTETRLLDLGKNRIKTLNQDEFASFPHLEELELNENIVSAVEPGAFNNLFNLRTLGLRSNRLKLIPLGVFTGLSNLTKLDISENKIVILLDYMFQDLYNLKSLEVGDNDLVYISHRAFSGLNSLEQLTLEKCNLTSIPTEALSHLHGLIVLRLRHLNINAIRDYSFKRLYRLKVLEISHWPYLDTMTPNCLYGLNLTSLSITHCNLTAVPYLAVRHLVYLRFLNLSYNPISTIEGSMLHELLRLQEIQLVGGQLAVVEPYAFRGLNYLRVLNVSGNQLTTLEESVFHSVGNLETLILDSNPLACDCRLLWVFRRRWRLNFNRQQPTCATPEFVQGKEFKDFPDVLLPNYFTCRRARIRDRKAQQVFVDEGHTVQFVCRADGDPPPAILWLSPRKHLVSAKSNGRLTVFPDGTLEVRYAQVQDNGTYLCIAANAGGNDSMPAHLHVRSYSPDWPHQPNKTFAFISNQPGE
Outline: as §1

[12] = biological target: T7, NgR (Homo sapiens, UniProt Q9BZR6); assay: AP fusion protein binding to NgR expressing COS-7 cells; conditions: AP fused Amino-Nogo fragments in conditioned media on NgR expressing COS-7 cells; 'No binding at' cells continue on the next line: AmNg A 150 nM; a.a. 1000-1018, a.a. 1005-1018, Amino of NgC 25 nM; a.a. 950-1004 50 nM; Amino of NgB 100 nM
T7 construct: expressed in transfected cells; host or cells: COS-7
T7 sequence (Q9BZR6 27-447): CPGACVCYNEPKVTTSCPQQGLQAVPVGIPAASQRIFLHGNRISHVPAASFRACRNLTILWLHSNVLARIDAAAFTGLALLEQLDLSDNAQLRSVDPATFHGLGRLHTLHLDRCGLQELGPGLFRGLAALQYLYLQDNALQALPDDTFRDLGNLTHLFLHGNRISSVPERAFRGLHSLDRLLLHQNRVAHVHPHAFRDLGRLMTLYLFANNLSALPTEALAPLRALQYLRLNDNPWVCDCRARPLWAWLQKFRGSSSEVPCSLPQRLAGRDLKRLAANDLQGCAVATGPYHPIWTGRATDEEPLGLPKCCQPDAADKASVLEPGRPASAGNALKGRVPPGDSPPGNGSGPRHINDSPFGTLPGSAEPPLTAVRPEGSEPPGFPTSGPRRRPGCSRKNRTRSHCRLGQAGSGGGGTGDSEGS
Outline: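 Conditioned media from HEK293T cells transfected with AP-fused human Amino-Nogo-A fragments, collected after 7 days, applied to NgR-expressing COS-7 cells. Bound AP stained and quantified by image analysis; saturable binding used to derive Kd.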

| Molecule | binding to DRG axons/neurons [1] | MAG [2] | B4C-66 [3] | Ng66 [4] | binding result [5] | binding result [6] | binding result [7] | ligand binding category of NgR mutant (Table II) [8] | OMgp [9] | B4C [10] | Lingo-1 [11] | NgR Kd (nM) [12] |
| --- | --- | --- | --- | --- | --- | --- | --- | --- | --- | --- | --- | --- |
| IFSAELSKTSVVDLLYWRDIKKTG (not fully specified) [a.a. 995-1018 (Amino-Nogo-A-24), AP fusion protein of Nogo-A aa 995-1018] | binding to DRG axons |  |  |  |  |  |  |  |  |  |  |  |
| human NgR1 alanine mutant 211, 213, 237, 256, 259, 284 (receptor) CPGACVCYNEPKVTTSCPQQGLQAVPVGIPAASQRIFLHGNRISHVPAASFRACRNLTILWLHSNVLARIDAAAFTGLALLEQLDLSDNAQLRSVDPATFHGLGRLHTLHLDRCGLQELGPGLFRGLAALQYLYLQDNALQALPDDTFRDLGNLTHLFLHGNRISSVPERAFRGLHSLDRLLLHANAVAHVHPHAFRDLGRLMTLYLFANALSALPTEALAPLRALQYLALNANPWVCDCRARPLWAWLQKFRGSSSAVPCSLPQRLAGRDLKRLAANDLQGCAVATGPYHPIWTGRATDEEPLGLPKCCQPDAADKASVLEPGRPASAGNALKGRVPPGDSPPGNGSGPRHINDSPFGTLPGSAEPPLTAVRPEGSEPPGFPTSGPRRRPGCSRKNRTRSHCRLGQAGSGGGGTGDSEGSGALPSLTCSLTPLGLALVLWTVLGPC |  | − | − | − | no binding | no binding | no binding | Differential binding | − | − | ++ |  |
| human NgR1 alanine mutant 189, 191, 211, 213, 237, 256, 259, 284 (receptor) CPGACVCYNEPKVTTSCPQQGLQAVPVGIPAASQRIFLHGNRISHVPAASFRACRNLTILWLHSNVLARIDAAAFTGLALLEQLDLSDNAQLRSVDPATFHGLGRLHTLHLDRCGLQELGPGLFRGLAALQYLYLQDNALQALPDDTFRDLGNLTHLFLHGNAIASVPERAFRGLHSLDRLLLHANAVAHVHPHAFRDLGRLMTLYLFANALSALPTEALAPLRALQYLALNANPWVCDCRARPLWAWLQKFRGSSSAVPCSLPQRLAGRDLKRLAANDLQGCAVATGPYHPIWTGRATDEEPLGLPKCCQPDAADKASVLEPGRPASAGNALKGRVPPGDSPPGNGSGPRHINDSPFGTLPGSAEPPLTAVRPEGSEPPGFPTSGPRRRPGCSRKNRTRSHCRLGQAGSGGGGTGDSEGSGALPSLTCSLTPLGLALVLWTVLGPC |  |  | − | − | no binding | no binding | no binding | Differential binding | − | − | ++ |  |
| a.a. 181-864 (AmNg A): AP fusion protein of human Amino-Nogo fragment A, aa 181-864 of Nogo-A (protein, left off: large carriers, AP fusion protein of human Amino-Nogo fragment A, aa 181-864 of Nogo-A) SSGSVDETLFALPAASEPVIRSSAENMDLKEQPGNTISAGQEDFPSVLLETAASLPSLSPLSAASFKEHEYLGNLSTVLPTEGTLQENVSEASKEVSEKAKTLLIDRDLTEFSELEYSEMGSSFSVSPKAESAVIVANPREEIIVKNKDEEEKLVSNNILHNQQELPTALTKLVKEDEVVSSEKAKDSFNEKRVAVEAPMREEYADFKPFERVWEVKDSKEDSDMLAAGGKIESNLESKVDKKCFADSLEQTNHEKDSESSNDDTSFPSTPEGIKDRSGAYITCAPFNPAATESIATNIFPLLGDPTSENKTDEKKIEEKKAQIVTEKNTSTKTSNPFLVAAQDSETDYVTTDNLTKVTEEVVANMPEGLTPDLVQEACESELNEVTGTKIAYETKMDLVQTSEVMQESLYPAAQLCPSFEESEATPSPVLPDIVMEAPLNSAVPSAGASVIQPSSSPLEASSVNYESIKHEPENPPPYEEAMSVSLKKVSGIKEEIKEPENINAALQETEAPYISIACDLIKETKLSAEPAPDFSDYSEMAKVEQPVPDHSELVEDSSPDSEPVDLFSDDSIPDVPQKQDETVMLVKESLTETSFESMIEYENKEKLSALPPEGGKPYLESFKLSLDNTKDTLLPDEVSTLSKKEKIPLQMEELSTAVYSNDDLFISKEAQIRETETFSDSSP | binds to DRG axons |  |  |  |  |  |  |  |  |  |  | No Binding |

Reference: US20090111753A1, “Nogo-A Polypeptide Fragments, Variant Nogo Receptor-1 Polypeptides, and Uses Thereof” (Yale University, priority 2004, published 2009)
